# Results reported in doi:10.1101/2025.08.15.670619.
# Molecular target: Full-length Synechococcus PCC 7335 nitric oxide synthase (syNOS) (Synechococcus sp. PCC 7335)
# Assay: cryo-EM structure
substance,measurement,value
Full-length Synechococcus PCC 7335 nitric oxide synthase (syNOS) (enzyme),stoichiometry N,2
